Laboratory results from patent US20170298096A1 (CANIMGUIDE THERAPEUTICS, published 2017).
No end group written: not given here.

T1: His-tagged P3028 (human, also: His-tag, terminus and sequence not given here)
T1 construct: in solution at 0.5 ug/mL over the peptide cards; found with anti-His-tag antibody and rabbit anti-mouse peroxidase (rampo); also called PGE73; not shown: His-tag
T1 peptide: VFDEFKPLVEEPQNLIK


Molecular target: T1, His-tagged P3028
Test: PEPSCAN chip ELISA, His-P3028 in solution;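 further: score is the raw OD at 405 nm from peroxidase colour with ABTS, imaged by CCD camera before and after staining, with wells showing air bubbles set to zero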

Row | Binder | RAMPO Score
1 | KKLDTFFVKLSLFTPR [SEQ ID NO 439] | 351 rampo score
2 | KKLDTFNVKLSLFTER [SEQ ID NO 443] | 348 rampo score
3 | KKLCTFFVKLSLFTER [SEQ ID NO 449] | 344 rampo score
4 | YKLDTFFVKLSLFTER [SEQ ID NO 483] | 315 rampo score
5 | KKLDTFFVKLSLYTER [SEQ ID NO 503] | 291 rampo score
6 | KWLDTFFVKLSLFTER [SEQ ID NO 490] | 304 rampo score
7 | KKLDTFFVKWSLFTER [SEQ ID NO 482] | 316 rampo score
8 | KCLDTFFVKLSLFTER [SEQ ID NO 499] | 295 rampo score
9 | KKLDTHFVKLSLFTER [SEQ ID NO 466] | 332 rampo score
10 | KKLDTCFVKLSLFTER [SEQ ID NO 462] | 335 rampo score
11 | KKLDTFFVKLDLFTER [SEQ ID NO 474] | 322 rampo score
12 | KKLSTFFVKLSLFTER [SEQ ID NO 451] | 344 rampo score
13 | KKLDDFFVKLSLFTER [SEQ ID NO 500] | 295 rampo score
14 | KKLDTFFVKLSLFAER [SEQ ID NO 489] | 305 rampo score
15 | KKLDTKFVKLSLFTER [SEQ ID NO 460] | 337 rampo score
16 | KKLHTFFVKLSLFTER [SEQ ID NO 479] | 317 rampo score
17 | KILDTFFVKLSLFTER [SEQ ID NO 467] | 331 rampo score
18 | KKLDTFFVKLWLFTER [SEQ ID NO 472] | 324 rampo score
19 | KKYDTFFVKLSLFTER [SEQ ID NO 452] | 344 rampo score
20 | KKLDTFFVKHSLFTER [SEQ ID NO 502] | 293 rampo score
21 | KDLDTFFVKLSLFTER [SEQ ID NO 461] | 335 rampo score
22 | KKLDTFFVKLSLFTHR [SEQ ID NO 478] | 318 rampo score
23 | KVLDTFFVKLSLFTER [SEQ ID NO 481] | 317 rampo score
24 | KQLDTFFVKLSLFTER [SEQ ID NO 440] | 350 rampo score

Row | Binder | RAMPO Score
25 | KKLDTFFVKLKLFTER [SEQ ID NO 473] | 323 rampo score
26 | KKLDTFFAKLSLFTER [SEQ ID NO 495] | 299 rampo score
27 | KKLDTFFVKLSCFTER [SEQ ID NO 455] | 342 rampo score
28 | KKLDEFFVKLSLFTER [SEQ ID NO 456] | 341 rampo score
29 | KKLDFFFVKLSLFTER [SEQ ID NO 504] | 290 rampo score
30 | KTLDTFFVKLSLFTER [SEQ ID NO 468] | 331 rampo score
31 | KKLDTFFVSLSLFTER [SEQ ID NO 511] | 274 rampo score
32 | KKLDLFFVKLSLFTER [SEQ ID NO 484] | 311 rampo score
33 | KKLDTFFVKLSLFTYR [SEQ ID NO 459] | 340 rampo score
34 | KKLDTFFVKLSLFTQR [SEQ ID NO 450] | 344 rampo score
35 | KELDTFFVKLSLFTER [SEQ ID NO 441] | 349 rampo score
36 | KKLDIFFVKLSLFTER [SEQ ID NO 501] | 293 rampo score
37 | KKLQTFFVKLSLFTER [SEQ ID NO 448] | 345 rampo score
38 | KSLDTFFVKLSLFTER [SEQ ID NO 510] | 281 rampo score
39 | KKLDTFFVTLSLFTER [SEQ ID NO 445] | 347 rampo score
40 | KKLDTFFVKLSYFTER [SEQ ID NO 475] | 320 rampo score
41 | SKLDTFFVKLSLFTER [SEQ ID NO 453] | 344 rampo score
42 | KKLDTRFVKLSLFTER [SEQ ID NO 486] | 309 rampo score
43 | KKLKTFFVKLSLFTER [SEQ ID NO 512] | 274 rampo score
44 | KKLDTWFVKLSLFTER [SEQ ID NO 444] | 348 rampo score
45 | KKLLTFFVKLSLFTER [SEQ ID NO 491] | 303 rampo score
46 | KKLDTFFVKLALFTER [SEQ ID NO 477] | 318 rampo score
47 | KKWDTFFVKLSLFTER [SEQ ID NO 458] | 341 rampo score
48 | KKLDTFFVKKSLFTER [SEQ ID NO 506] | 285 rampo score

Row | Binder | RAMPO Score
49 | KKLDTFFVKCSLFTER [SEQ ID NO 508] | 283 rampo score
50 | KKLDTFFVMLSLFTER [SEQ ID NO 509] | 283 rampo score
51 | KKLNTFFVKLSLFTER [SEQ ID NO 498] | 296 rampo score
52 | KYLDTFFVKLSLFTER [SEQ ID NO 494] | 301 rampo score
53 | KKLDTFDVKLSLFTER [SEQ ID NO 492] | 301 rampo score
54 | KKLDTFFTKLSLFTER [SEQ ID NO 496] | 298 rampo score
55 | KKLDTFFVKLSLFQER [SEQ ID NO 493] | 301 rampo score
56 | KKLDTFFVKLRLFTER [SEQ ID NO 464] | 333 rampo score
57 | KKLDTFFVKLCLFTER [SEQ ID NO 457] | 341 rampo score
58 | KKLDAFFVKLSLFTER [SEQ ID NO 447] | 346 rampo score
59 | KKLDTFFVHLSLFTER [SEQ ID NO 488] | 306 rampo score
60 | WKLDTFFVKLSLFTER [SEQ ID NO 507] | 284 rampo score
61 | KKLDTGFVKLSLFTER [SEQ ID NO 446] | 347 rampo score
62 | KKLRTFFVKLSLFTER [SEQ ID NO 480] | 317 rampo score
63 | KKLDTFFVKLILFTER [SEQ ID NO 505] | 289 rampo score
64 | KKLDTFFVKLPLFTER [SEQ ID NO 470] | 328 rampo score
65 | KALDTFFVKLSLFTER [SEQ ID NO 485] | 309 rampo score
66 | FKLDTFFVKLSLFTER [SEQ ID NO 465] | 332 rampo score
67 | KKLDTFFVKLSLFTKR [SEQ ID NO 471] | 324 rampo score
68 | KKLDTFYVKLSLFTER [SEQ ID NO 463] | 334 rampo score
69 | KKLDTFFVQLSLFTER [SEQ ID NO 469] | 330 rampo score
70 | KLLDTFFVKLSLFTER [SEQ ID NO 454] | 343 rampo score
71 | KKLDTFFVKLSPFTER [SEQ ID NO 497] | 297 rampo score
